A word on the Ki: it is the dissociation constant of the complex between target and ligand, obtained from inhibition or displacement. As a reminder, the Km is the concentration of substrate that gives half-maximal velocity. Broadly, the kcat is the maximal rate divided by the concentration of active sites. One may read the kcat/Km as the second-order rate constant that governs catalysis at low substrate concentration.

The target of one series is T1, mpCAR (Mycolicibacterium phlei, UniProt A0A5N5VEC4).
T1 construct: gene car; expressed in E. coli BL21(DE3) with B. subtilis Sfp (phosphopantetheinylated); around 130 kDa
The experiment in a line: NADPH oxidation at […] nm, product inhibition kinetics. It is filed as biochemical. As to conditions: pH 7.5, 30 °C, 10 mM MgCl2.

The subject of another series is O=C(O)/C=C/c1ccccc1. The experiment in a line: purified protein. Format: biochemical, Nocardia iowensis. Particulars: 1 mM ATP, […] NADPH, 10 mM MgCl2, 100 mM Tris-HCl pH 7.5, 30 °C.
The test system of series [1] is CCCCCCCCCCCC(=O)O. The experiment in a line: purified protein. Format: biochemical, Nocardia iowensis. As to conditions: 1 mM ATP, […] NADPH, 10 mM MgCl2, 100 mM Tris-HCl pH 7.5, 30 °C.
A further series relates to COc1ccc(C(=O)O)cc1. The experiment in a line: purified protein. As to conditions: 1 mM ATP, 0.25 mM NADPH, 10 mM MgCl2, 100 mM Tris-HCl pH 7.5, 30 °C.
Series [2] relates to CCCCCCCCCCCCCCCCCC(=O)O. Put plainly: purified protein. Particulars: 1 mM ATP, […] NADPH, 10 mM MgCl2, 100 mM Tris-HCl pH 7.5, 30 °C.
The test system of series [3] is CCCCCCCCCCCC(=O)O. Put plainly: purified protein. As to conditions: 1 mM ATP, […] NADPH, 10 mM MgCl2, 100 mM Tris-HCl pH 7.5, 30 °C.
For the next series, the system named is CCCCCCCC(=O)O. The experiment in a line: purified protein. Format: biochemical, Tsukamurella paurometabola. As to conditions: 1 mM ATP, […] NADPH, 10 mM MgCl2, 100 mM Tris-HCl pH 7.5, 30 °C.
The test system of series [4] is CCCCCCCCCCCCCCCCCC(=O)O. Put plainly: purified protein. Particulars: 1 mM ATP, […] NADPH, 10 mM MgCl2, 100 mM Tris-HCl pH 7.5, 30 °C. Format: biochemical, Tsukamurella paurometabola.
For the next series, the system named is O=C(O)C#Cc1ccccc1. The experiment in a line: purified protein. It is filed as biochemical, Tsukamurella paurometabola. As to conditions: 1 mM ATP, […] NADPH, 10 mM MgCl2, 100 mM Tris-HCl pH 7.5, 30 °C.
Series [5] relates to CCCCCCCCCCCC(=O)O. The experiment in a line: purified protein. Format: biochemical, Tsukamurella paurometabola. Particulars: 1 mM ATP, […] NADPH, 10 mM MgCl2, 100 mM Tris-HCl pH 7.5, 30 °C.
Substrate in series [6]: CCCCCCCCCCCC(=O)O
Put plainly: purified protein. As to conditions: 1 mM ATP, […] NADPH, 10 mM MgCl2, 100 mM Tris-HCl pH 7.5, 30 °C. Format: biochemical, Mycolicibacterium smegmatis.

Substrate in series [7]: CCCCCCCC(=O)O
Put plainly: purified protein. Particulars: 1 mM ATP, 0.25 mM NADPH, 10 mM MgCl2, 100 mM Tris-HCl pH 7.5, 30 °C.

Substrate in series [8]: Cc1ccc(C(=O)O)cc1
Put plainly: purified protein. Particulars: 1 mM ATP, 0.25 mM NADPH, 10 mM MgCl2, 100 mM Tris-HCl pH 7.5, 30 °C.

Substrate in series [9]: O=C(O)/C=C/c1ccccc1
The experiment in a line: purified protein. As to conditions: 1 mM ATP, 0.25 mM NADPH, 10 mM MgCl2, 100 mM Tris-HCl pH 7.5, 30 °C.

`Nc1ncnc2c1ncn2[C@@H]1O[C@H](COP(=O)(O)O)[C@@H](O)[C@H]1O` [AMP] displayed a Ki at mpCAR (competitive with ATP) of 8200 ± 900 µM.

As for `NC(=O)c1ccc[n+]([C@@H]2O[C@H](COP(=O)(O)OP(=O)(O)OC[C@H]3O[C@@H](n4cnc5c(N)ncnc54)[C@H](OP(=O)(O)O)[C@@H]3O)[C@@H](O)[C@H]2O)c1` [NADP^+], on mpCAR (competitive with NADPH), the Ki was found to be 143 ± 8 µM.

`O=P(O)(O)OP(=O)(O)O` [PPi] registered a Ki at mpCAR (mixed inhibition with ATP) of 220 ± 50 µM.

Regarding niCAR (Nocardia iowensis), in the series with O=C(O)/C=C/c1ccccc1, the Michaelis-Menten constant (Km) came out at 0.05 ± 0.02 mM, the kcat was determined as 0.128 ± 0.0117 s⁻¹ and the kcat/Km worked out at 2830 ± 1170 M⁻¹ s⁻¹. Moreover, in the series on CCCCCCCCCCCC(=O)O [1], the Km is 0.02 ± 0.01 mM, the kcat worked out at 2.62 ± 0.15 s⁻¹ and the kcat/Km was found to be 117000 ± 33300 M⁻¹ s⁻¹. In the series with COc1ccc(C(=O)O)cc1, the Km was 0.25 ± 0.01 mM, the kcat came out at 0.817 s⁻¹ and the kcat/Km worked out at 3330 M⁻¹ s⁻¹.

noCAR (Nocardia otitidiscaviarum): in the series on CCCCCCCCCCCCCCCCCC(=O)O [2], the Michaelis-Menten constant (Km) was found to be 0.02 ± 0.01 mM, the kcat amounted to 0.183 ± 0.0167 s⁻¹ and the kcat/Km was found to be 8330 ± 5000 M⁻¹ s⁻¹. Moreover, in the series on CCCCCCCCCCCC(=O)O [3], the Michaelis-Menten constant (Km) came out at 0.04 ± 0.01 mM, the kcat was found to be 1.65 ± 0.05 s⁻¹ and the kcat/Km came to 41700 ± 5000 M⁻¹ s⁻¹.

Regarding “tpCAR (Tsukamurella paurometabola DSM 20162)”, the Km turned out to be 0.2 ± 0.01 mM in the series on CCCCCCCC(=O)O, 0.12 ± 0.03 mM in the series on CCCCCCCCCCCCCCCCCC(=O)O [4], 0.09 ± 0.02 mM in the series with O=C(O)C#Cc1ccccc1 and 0.04 ± 0.01 mM in the series with CCCCCCCCCCCC(=O)O [5]. In addition, the kcat with CCCCCCCC(=O)O was determined as 3.65 ± 0.05 s⁻¹; in the series on CCCCCCCCCCCCCCCCCC(=O)O [4], 0.25 ± 0.0167 s⁻¹; with O=C(O)C#Cc1ccccc1, 0.1 ± 0.0667 s⁻¹; with CCCCCCCCCCCC(=O)O [5] it was 2.62 ± 0.0833 s⁻¹. Also, the catalytic efficiency (kcat/Km) in the series on CCCCCCCC(=O)O is 19000 ± 833 M⁻¹ s⁻¹; in the series on CCCCCCCCCCCCCCCCCC(=O)O [4], 2000 ± 500 M⁻¹ s⁻¹; in the series with O=C(O)C#Cc1ccccc1 it was 1170 ± 667 M⁻¹ s⁻¹; in the series on CCCCCCCCCCCC(=O)O [5], 60000 ± 6670 M⁻¹ s⁻¹.

B1: msCAR (Mycolicibacterium smegmatis MC2 155) (protein)
chain: MTSDVHDATDGVTETALDDEQSTRRIAELYATDPEFAAAAPLPAVVDAAHKPGLRLAEILQTLFTGYGDRPALGYRARELATDEGGRTVTRLLPRFDTLTYAQVWSRVQAVAAALRHNFAQPIYPGDAVATIGFASPDYLTLDLVCAYLGLVSVPLQHNAPVSRLAPILAEVEPRILTVSAEYLDLAVESVRDVNSVSQLVVFDHHPEVDDHRDALARAREQLAGKGIAVTTLDAIADEGAGLPAEPIYTADHDQRLAMILYTSGSTGAPKGAMYTEAMVARLWTMSFITGDPTPVINVNFMPLNHLGGRIPISTAVQNGGTSYFVPESDMSTLFEDLALVRPTELGLVPRVADMLYQHHLATVDRLVTQGADELTAEKQAGAELREQVLGGRVITGFVSTAPLAAEMRAFLDITLGAHIVDGYGLTETGAVTRDGVIVRPPVIDYKLIDVPELGYFSTDKPYPRGELLVRSQTLTPGYYKRPEVTASVFDRDGYYHTGDVMAETAPDHLVYVDRRNNVLKLAQGEFVAVANLEAVFSGAALVRQIFVYGNSERSFLLAVVVPTPEALEQYDPAALKAALADSLQRTARDAELQSYEVPADFIVETEPFSAANGLLSGVGKLLRPNLKDRYGQRLEQMYADIAATQANQLRELRRAAATQPVIDTLTQAAATILGTGSEVASDAHFTDLGGDSLSALTLSNLLSDFFGFEVPVGTIVNPATNLAQLAQHIEAQRTAGDRRPSFTTVHGADATEIRASELTLDKFIDAETLRAAPGLPKVTTEPRTVLLSGANGWLGRFLTLQWLERLAPVGGTLITIVRGRDDAAARARLTQAYDTDPELSRRFAELADRHLRVVAGDIGDPNLGLTPEIWHRLAAEVDLVVHPAALVNHVLPYRQLFGPNVVGTAEVIKLALTERIKPVTYLSTVSVAMGIPDFEEDGDIRTVSPVRPLDGGYANGYGNSKWAGEVLLREAHDLCGLPVATFRSDMILAHPRYRGQVNVPDMFTRLLLSLLITGVAPRSFYIGDGERPRAHYPGLTVDFVAEAVTTLGAQQREGYVSYDVMNPHDDGISLDVFVDWLIRAGHPIDRVDDYDDWVRRFETALTALPEKRRAQTVLPLLHAFRAPQAPLRGAPEPTEVFHAAVRTAKVGPGDIPHLDEALIDKYIRDLREFGLI
notes: expressed in E. coli BL21(DE3) with B. subtilis Sfp (phosphopantetheinylated); one of three M. smegmatis paralogues, distinct from the CAR of Moura et al
On to B1, for which the Km in the series “purified protein [6]” came to 0.05 ± 0.01 mM; in “purified protein [7]”, 0.1 ± 0.01 mM; in the series “purified protein [8]”, 0.16 ± 0.02 mM; in “purified protein [9]”, 0.075 ± 0.004 mM. For the same molecule, the kcat was found to be 2.18 ± 0.0833 s⁻¹ in “purified protein [6]”, 4.93 s⁻¹ in “purified protein [7]”, 2.57 s⁻¹ in “purified protein [8]” and 1.97 s⁻¹ in the series “purified protein [9]”. Besides, the kcat/Km in “purified protein [6]” came to 45000 ± 6670 M⁻¹ s⁻¹; in “purified protein [7]”, 50000 M⁻¹ s⁻¹; in the series “purified protein [8]” it was 15000 M⁻¹ s⁻¹; in the series “purified protein [9]”, 26700 M⁻¹ s⁻¹.

(Values after paper PMC5396282, “Characterization of Carboxylic Acid Reductases as Enzymes in the Toolbox for Synthetic Chemistry” (Chemcatchem, 2017).)
